Assay results from the supplement of paper PMC10567573.

B1: SPACA3 (parent)
chain: FTSGFNAAALDYEADGSTNNGIFQ

Variants of: B1
Assay: protein stability index of a GFP-peptide fusion (GPS, HEK-293T) (PSI 1-6); higher = more stable
Conditions: c terminus: a fixed tail appended
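Also: lentivirally expressed fusions sorted by FACS into six bins by GFP to DsRed ratio, PSI derived from sequencing read proportions per bin multiplied by bin number.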

Variant	protein stability index
FTSGFNAAALDYETDGSTNNGIFQ	1.96
FTSGFNAAALDYEGDGSTNNGIFQ	1.76
FTSGFNAAALDYEIDGSTNNGIFQ	2.05
FTSGFNAAALDYELDGSTNNGIFQ	1.8
FTSGFNAAALDYEWDGSTNNGIFQ	1.94
FTSGFNAAALDYERDGSTNNGIFQ	2.27
FTSGFNAAALDYEDDGSTNNGIFQ	2.13
FTSGFNAAALDYENDGSTNNGIFQ	1.72
FTSGFNAAALDYESDGSTNNGIFQ	1.95
FTSGFNAAALDYEVDGSTNNGIFQ	2.17
FTSGFNAAALDYEYDGSTNNGIFQ	2.09
FTSGFNAAALDYEHDGSTNNGIFQ	2.09
FTSGFNAAALDYEFDGSTNNGIFQ	2.11
FTSGFNAAALDYEPDGSTNNGIFQ	2
FTSGFNAAALDYEEDGSTNNGIFQ	2.14
FTSGFNAAALDYEKDGSTNNGIFQ	2.5
FTSGFNAAALDYEMDGSTNNGIFQ	2.02
FTSGFNAAALDYEQDGSTNNGIFQ	2.1
FTSGFNAAALDYECDGSTNNGIFQ	2.37
FTSGFNAANLDYEADGSTNNGIFQ	1.82
FTSGFNAAQLDYEADGSTNNGIFQ	2.97
FTSGFNAAILDYEADGSTNNGIFQ	2.44
FTSGFNAAVLDYEADGSTNNGIFQ	1.91
FTSGFNAAPLDYEADGSTNNGIFQ	1.86

Variant	protein stability index
FTSGFNAATLDYEADGSTNNGIFQ	1.69
FTSGFNAAGLDYEADGSTNNGIFQ	2.06
FTSGFNAAKLDYEADGSTNNGIFQ	1.62
FTSGFNAALLDYEADGSTNNGIFQ	1.78
FTSGFNAASLDYEADGSTNNGIFQ	2.5
FTSGFNAARLDYEADGSTNNGIFQ	1.99
FTSGFNAAELDYEADGSTNNGIFQ	2.46
FTSGFNAAWLDYEADGSTNNGIFQ	2.5
FTSGFNAAHLDYEADGSTNNGIFQ	2.18
FTSGFNAAYLDYEADGSTNNGIFQ	2.03
FTSGFNAAFLDYEADGSTNNGIFQ	2.92
FTSGFNAAMLDYEADGSTNNGIFQ	2.08
FTSGFNAADLDYEADGSTNNGIFQ	2.42
FTSGFNAAALTYEADGSTNNGIFQ	2
FTSGFNAAALMYEADGSTNNGIFQ	1.98
FTSGFNAAALAYEADGSTNNGIFQ	2.16
FTSGFNAAALHYEADGSTNNGIFQ	2.04
FTSGFNAAALVYEADGSTNNGIFQ	2.6
FTSGFNAAALCYEADGSTNNGIFQ	2.03
FTSGFNAAALQYEADGSTNNGIFQ	2.01
FTSGFNAAALKYEADGSTNNGIFQ	2.43
FTSGFNAAALGYEADGSTNNGIFQ	2.46
FTSGFNAAALWYEADGSTNNGIFQ	1.4
FTSGFNAAALPYEADGSTNNGIFQ	1.84

Variant	protein stability index
FTSGFNAAALSYEADGSTNNGIFQ	1.5
FTSGFNAAALYYEADGSTNNGIFQ	2.66
FTSGFNAAALNYEADGSTNNGIFQ	1.57
FTSGFNAAALLYEADGSTNNGIFQ	1.93
FTSGFNAAALRYEADGSTNNGIFQ	2.2
FTSGFNAAALFYEADGSTNNGIFQ	3.1
FTSGFNAAALEYEADGSTNNGIFQ	1.79
FTSGFNAAALIYEADGSTNNGIFQ	2.27
FTSGFNAAAIDYEADGSTNNGIFQ	1.98
FTSGFNAAACDYEADGSTNNGIFQ	1.92
FTSGFNAAAYDYEADGSTNNGIFQ	1.64
FTSGFNAAARDYEADGSTNNGIFQ	1.78
FTSGFNAAAPDYEADGSTNNGIFQ	2.25
FTSGFNAAAHDYEADGSTNNGIFQ	2.32
FTSGFNAAATDYEADGSTNNGIFQ	2.01
FTSGFNAAAGDYEADGSTNNGIFQ	2.38
FTSGFNAAAWDYEADGSTNNGIFQ	1.95
FTSGFNAAAFDYEADGSTNNGIFQ	2.3
FTSGFNAAAADYEADGSTNNGIFQ	1.62
FTSGFNAAADDYEADGSTNNGIFQ	2.47
FTSGFNAAANDYEADGSTNNGIFQ	2.08
FTSGFNAAAMDYEADGSTNNGIFQ	2.08
FTSGFNAAAQDYEADGSTNNGIFQ	2.14
FTSGFNAAAEDYEADGSTNNGIFQ	3.02

Variant	protein stability index
FTSGFNAAAKDYEADGSTNNGIFQ	1.99
FTSGFNAAAVDYEADGSTNNGIFQ	2.33
FTSGFNAAASDYEADGSTNNGIFQ	1.53
FTSGFNAAALDQEADGSTNNGIFQ	2.25
FTSGFNAAALDCEADGSTNNGIFQ	2.28
FTSGFNAAALDSEADGSTNNGIFQ	1.93
FTSGFNAAALDPEADGSTNNGIFQ	2.09
FTSGFNAAALDEEADGSTNNGIFQ	2.7
FTSGFNAAALDMEADGSTNNGIFQ	1.83
FTSGFNAAALDHEADGSTNNGIFQ	2.04
FTSGFNAAALDFEADGSTNNGIFQ	1.9
FTSGFNAAALDIEADGSTNNGIFQ	2.05
FTSGFNAAALDAEADGSTNNGIFQ	2.09
FTSGFNAAALDTEADGSTNNGIFQ	2.41
FTSGFNAAALDREADGSTNNGIFQ	1.78
FTSGFNAAALDDEADGSTNNGIFQ	2.3
FTSGFNAAALDLEADGSTNNGIFQ	1.74
FTSGFNAAALDGEADGSTNNGIFQ	2.22
FTSGFNAAALDKEADGSTNNGIFQ	2.04
FTSGFNAAALDVEADGSTNNGIFQ	2.34
FTSGFNAAALDWEADGSTNNGIFQ	1.39
FTSGFNAAALDNEADGSTNNGIFQ	2.2
